Laboratory results reported in article PMC5437018, “Mouse Rif1 is a regulatory subunit of protein phosphatase 1 (PP1)” (Scientific Reports, 2017).

How the values were obtained:
Settings in all cases: both partners purified
[1] = molecular target: T1, Recombinant purified α-isoform of mammalian PP1 (residues 1–330), tag cleaved (mammalian, UniProt P62136 1-330); experiment: SPR; Biacore 3000; PP1 covalently coupled to a CM5 chip; Rif1 CRI, mutants and peptide injected at 20 µl/min in 10 mM Tris-HCl pH 7.5, 250 mM NaCl, 1 mM DTT, 2 mM MnCl2, 0.005% Tween 20; 1:1 binding model
T1 construct: Protein phosphatase 1 catalytic subunit, α-isoform, 'mammalian', residues 1–330; synthetic gene (GenScript); Printed mass 37.5 kDa; Subcloned into pMAL-c2G under the Ptac promoter; also called PP1α; source: E. coli BL21 AI (RIL), purified (TALON, TEV cleavage, heparin Sepharose); not shown: His6, N-terminal, cleaved

[2] = molecular target: T1, Recombinant purified α-isoform of …; experiment: ITC; CRI (140 µM) titrated into PP1 (18 µM), iTC200, 25 °C; 20 mM Tris-HCl pH 7.5, 200 mM NaCl, 1 mM MnCl2, 5 mM β-mercaptoethanol, 10% glycerol
[3] = molecular target: T1, Recombinant purified α-isoform of …; experiment: SEC; analytical gel filtration on Superdex 75 in 20 mM Tris-HCl pH 7.5, 200 mM NaCl, 2 mM DTT, 1 mM MnCl2; PP1/CRI at molar ratios 1:1, 1:3 and 2:1

T1 sequence (P62136 whole entry, the tested form may be a part, canonical isoform): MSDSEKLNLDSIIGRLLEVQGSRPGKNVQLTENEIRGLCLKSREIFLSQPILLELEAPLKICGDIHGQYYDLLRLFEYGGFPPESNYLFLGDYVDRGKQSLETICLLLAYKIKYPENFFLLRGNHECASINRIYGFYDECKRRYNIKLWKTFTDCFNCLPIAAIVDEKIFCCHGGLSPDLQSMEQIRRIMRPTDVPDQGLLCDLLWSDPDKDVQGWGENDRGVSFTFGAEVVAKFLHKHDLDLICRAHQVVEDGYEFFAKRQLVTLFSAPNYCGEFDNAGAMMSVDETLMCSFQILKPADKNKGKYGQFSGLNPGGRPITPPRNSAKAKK

Kd [1]: 9.7 ± 1.7 nM
Kd [2]: 22.8 ± 4.2 nM
dH [2]: -23.8 ± 0.129 kcal/mol
stoichiometry N [3]: 1
B1: Rif1 CRI (residues 2093–2190), purified, wild type (domain or fragment, mouse, UniProt Q6PR54 2093-2190, looked up)
chain: TSPEKLELDSFGSVNESPSGMQQARCVWSPLASPSTSILKRGLKRSQEDEISPVNKIRRVSFADPIYQAGLADDIDRRCSVVRSHSSNSSPIIKSVKT
notes: Rif1, mouse, CRI, residues 2093–2190; For NMR the same fragment was 15N or 15N/13C labelled; Printed mass 10.8 kDa; also called CR1; 15N-labeled CRI; source: recombinant, purified (TALON beads, tag cleaved by TEV protease)
